# Results published in article PMC2745220 (Cell, 2008).
# T1: ParB, purified (C. crescentus, UniProt P0CAV8 1-304)
# T1 sequence (looked up): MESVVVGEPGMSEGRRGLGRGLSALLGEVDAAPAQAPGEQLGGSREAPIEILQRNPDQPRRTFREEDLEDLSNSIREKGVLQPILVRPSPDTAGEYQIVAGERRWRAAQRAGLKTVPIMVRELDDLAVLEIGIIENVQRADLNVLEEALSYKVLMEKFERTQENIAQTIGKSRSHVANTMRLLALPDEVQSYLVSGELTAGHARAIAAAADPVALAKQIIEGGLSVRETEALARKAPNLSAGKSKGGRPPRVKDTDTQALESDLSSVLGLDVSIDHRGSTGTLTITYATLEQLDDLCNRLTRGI
# B1: PopZ (Polar Organizing Protein Z), purified, 6-His tag cleaved (natural protein, C. crescentus, UniProt Q9A8N4 1-177, looked up)
# chain: MSDQSQEPTMEEILASIRRIISEDDAPAEPAAEAAPPPPPEPEPEPVSFDDEVLELTDPIAPEPELPPLETVGDIDVYSPPEPESEPAYTPPPAAPVFDRDEVAEQLVGVSAASAAASAFGSLSSALLMPKDGRTLEDVVRELLRPLLKEWLDQNLPRIVETKVEEEVQRISRGRGA
# B2: 6His-PopZ (His-tagged PopZ) (natural protein, C. crescentus, UniProt Q9A8N4 1-177, looked up)
# chain: B1 chain
# Assays:
# native gel or EMSA = molecular target: the molecule itself; experiment: native gel or EMSA
# ParB, purified = molecular target: T1, ParB, purified; experiment: SPR
# SEC = molecular target: the molecule itself; experiment: SEC
Binder,binding result (native gel or EMSA),"Kd (ParB, purified)",binding result (SEC)
B1,binds,20 nM,
B2,,,binds
